US20260125457A1 (Janssen / Centocor, published 2026)

Legend:
[1] = molecular target: CALRdel52 (mutant calreticulin, 52 base pair deletion, Type 1) expressed with MPL on engineered cancer cells (UniProt P27797); test: cell-based or functional assay
[2] = molecular target: CALRins5 (mutant calreticulin, 5 base pair insertion, Type 2) expressed with MPL on engineered cancer cells (UniProt P27797); test: cell-based or functional assay
[3] = molecular target: T1, 22 amino acid CALRmut-specific peptide (acetylation of the terminal amino-group; C-terminal -OH group); test: phage ELISA; QC ELISA of soluble Fab-AP
T1 construct: also called 22aa CALRmut peptide; CALRmut target peptide
T1 peptide: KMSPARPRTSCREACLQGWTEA

CALRdel52 (mutant calreticulin, 52 base pair deletion, Type 1) expressed with MPL on engineered cancer cells, sequence (P27797 other isoform, or with tags, fused parts or gaps mutant limits assumed): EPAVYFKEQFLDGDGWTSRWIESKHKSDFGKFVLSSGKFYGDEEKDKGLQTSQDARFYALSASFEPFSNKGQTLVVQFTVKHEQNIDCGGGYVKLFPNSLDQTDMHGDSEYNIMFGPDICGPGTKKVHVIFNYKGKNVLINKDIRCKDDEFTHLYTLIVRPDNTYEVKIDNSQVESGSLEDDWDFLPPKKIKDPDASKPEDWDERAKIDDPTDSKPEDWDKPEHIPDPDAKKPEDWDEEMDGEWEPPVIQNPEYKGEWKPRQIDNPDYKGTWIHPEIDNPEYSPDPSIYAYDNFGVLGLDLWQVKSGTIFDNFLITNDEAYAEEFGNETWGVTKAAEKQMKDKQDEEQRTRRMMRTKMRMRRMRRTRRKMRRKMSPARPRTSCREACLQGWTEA
CALRins5 (mutant calreticulin, 5 base pair insertion, Type 2) expressed with MPL on engineered cancer cells, sequence (P27797 other isoform, or with tags, fused parts or gaps mutant limits assumed): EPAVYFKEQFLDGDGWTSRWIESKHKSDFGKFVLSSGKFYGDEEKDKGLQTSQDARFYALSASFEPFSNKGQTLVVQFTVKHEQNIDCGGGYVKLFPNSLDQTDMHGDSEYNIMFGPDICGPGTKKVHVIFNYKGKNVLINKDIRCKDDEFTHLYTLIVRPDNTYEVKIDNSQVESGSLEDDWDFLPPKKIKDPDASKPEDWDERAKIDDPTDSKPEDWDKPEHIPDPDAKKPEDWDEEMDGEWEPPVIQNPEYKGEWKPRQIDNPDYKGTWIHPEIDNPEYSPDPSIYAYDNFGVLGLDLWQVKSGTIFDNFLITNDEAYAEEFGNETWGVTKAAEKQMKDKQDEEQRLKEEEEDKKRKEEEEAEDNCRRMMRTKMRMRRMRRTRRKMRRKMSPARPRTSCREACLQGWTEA

Binder	Cytotoxicity EC50, K562 MPL CALRdel52 cells [1]	Cytotoxicity EC50, OCI-M2 MPL CALRdel52 cells [1]	Cytotoxicity EC50, K562 MPL CALRins5 cells [2]	Cytotoxicity EC50, OCI-M2 MPL CALRins5 cells [2]	binding result [3]
CALRB77 (MP1010 Fab x CD3W245-LH-scFv, medium affinity) (bispecific antibody, part only; not given: anti-CD3 scFv arm, constant regions, V domains shown, not shown: another chain or arm of the molecule; a dimerising Fc or GST; small tags and cut ends) VL: DPMLTQTPSSVSAAVGGTVTIGCQSSQSVYDKNWLSWYQQKPGQPPSRLIYDASKLESGVPSRFSGSGSGTQFTLTISGVQSDDVATYYCAGGFTGNVYAFGGGTEVVVK VH: QSVEESGGRLVTPGTPLTLTCTVSGIDLSNNAISWVRQAPGKGLEYIGVIGNTGDTYYASWAKGRFTISKTSSTTVDLKMTSLTTEDTATYFCVRGPPSYSNSVKNIWGPGTLVTISS	0.195 µg/mL	0.183 µg/mL	0.414 µg/mL	0.189 µg/mL	
CALRB115 (MP1004 Fab x CD3W245-HL-scFv, high affinity) (bispecific antibody, part only; not given: anti-CD3 scFv arm, constant regions, V domains shown, not shown: another chain or arm of the molecule; a dimerising Fc or GST; small tags and cut ends) VH: QEQLEESGGRLVTPGTPLTLTCKVSGIDLSNNAISWVRQAPGKGLEYIGVIGNTGDTYYASWAKGRFTISKTSSTTVDLKMTSLTTEDTATYFCVRGPPSYSNSVKNIWGPGTLVTISS VL: DPMLTQTPSSVSAAVGGTVTINCQSSQSVYNNNWLSWLQQKPGQPPNRLIYDASKLESGVPSRFSGSGSGTQFTLTISGVQSDDAATYYCAGGFTGNVYTFGGGTEVVVK	0.0348 µg/mL	0.0508 µg/mL	0.0541 µg/mL	0.0431 µg/mL	
CALRB116 (MP1007 Fab x CD3W245-HL-scFv, high affinity) (bispecific antibody, part only; not given: anti-CD3 scFv arm, constant regions, V domains shown, not shown: another chain or arm of the molecule; a dimerising Fc or GST; small tags and cut ends) VH: QQLEESGGRLVAPGTPLRLTCTVSGIDLSNNAVSWVRQAPGKGLEYIGVIGNTGTTYYANWAKGRFTISKTSSTTVDLKMTSLTTDDTATYFCVRGPPSYSNSVRNIWGPGTLVTVSS VL: DPMLTQTPSSVSAAVGGTVTIGCQSSQSVYDNNWLSWYQQKPGQPPNRLIYDASKLASGVPSRFSGSGSGTQFTLTISGVKSDDAATYYCAGGYTGNVYSFGGGTMVEIK	0.0243 µg/mL	0.0802 µg/mL	0.0953 µg/mL	0.0392 µg/mL	
CALRB76 (MP1007 Fab x CD3W245-LH-scFv, medium affinity) (bispecific antibody, part only; not given: CD3 scFv arm and IgG1 constant regions, V domains shown, not shown: another chain or arm of the molecule; a dimerising Fc or GST; small tags and cut ends) VL: DPMLTQTPSSVSAAVGGTVTIGCQSSQSVYDNNWLSWYQQKPGQPPNRLIYDASKLASGVPSRFSGSGSGTQFTLTISGVKSDDAATYYCAGGYTGNVYSFGGGTMVEIK VH: QQLEESGGRLVAPGTPLRLTCTVSGIDLSNNAVSWVRQAPGKGLEYIGVIGNTGTTYYANWAKGRFTISKTSSTTVDLKMTSLTTDDTATYFCVRGPPSYSNSVRNIWGPGTLVTVSS	0.0633 µg/mL	0.0897 µg/mL	0.107 µg/mL	0.189 µg/mL	
CALRB117 (MP1010 Fab x CD3W245-HL-scFv, high affinity) (bispecific antibody, part only; not given: anti-CD3 scFv arm, constant regions, V domains shown, not shown: another chain or arm of the molecule; a dimerising Fc or GST; small tags and cut ends) VH: QSVEESGGRLVTPGTPLTLTCTVSGIDLSNNAISWVRQAPGKGLEYIGVIGNTGDTYYASWAKGRFTISKTSSTTVDLKMTSLTTEDTATYFCVRGPPSYSNSVKNIWGPGTLVTISS VL: DPMLTQTPSSVSAAVGGTVTIGCQSSQSVYDKNWLSWYQQKPGQPPSRLIYDASKLESGVPSRFSGSGSGTQFTLTISGVQSDDVATYYCAGGFTGNVYAFGGGTEVVVK	0.0403 µg/mL	0.0598 µg/mL	0.0741 µg/mL	0.0481 µg/mL	
Clone 3 (Fab, V domains shown, Rabbit/human chimeric Fab (human CH1, CK) on phage; also soluble Fab-AP) VH: QEQLKESGGRLVAPGTPLRLTCRVSGIDLSNNAVSWVRQAPGKGLEYIGVIGNTGSTYYANWAKGRFTISKTSSTTVDLKMTSLTADDTATYFCVRGPPSYSNSVKNIWGPGTLVTVSS VL: DPMLTQTPSSVSAAVGGTVTIGCQSSQSVYDKNWLSWYQQKPGQPPSRLIYDASKLESGVPSRFSGSGSGTQFTLTISGVQCDDAATYYCAGGFTGNVYAFGGGTEVVVK					binds
CALRB120 (MP1018C Fab x CD3W245-HL-scFv, high affinity) (bispecific antibody, part only; not given: CD3 scFv arm and IgG1 constant regions, V domains shown, not shown: another chain or arm of the molecule; a dimerising Fc or GST; small tags and cut ends) VL: DVVMTQTPSSVSAAVGGTVTINCQASQSLYNNKNLAWYQQKPGQPPKLLIYYASALASGVSSRFKGSGSGTQFTLTISGVQSDDAATYYCQGEFNCNSADCNSFGGGTEVVVK VH: QSVEESGGRLVTPGTPLTITCTVSGFSLSSYAMSWVRQAPGKGLEWIGVIDSGGTTYYATWAKSRFTISKTSSTKVALKITSPTTEDTATYFCARESYAGYDGYGHPIPYGMDPWGPGTLVTVSS	0.0077 µg/mL	0.0091 µg/mL	0.0119 µg/mL	0.0145 µg/mL	
CALRB81 (MP1018 Fab x CD3W245-LH-scFv, medium affinity) (bispecific antibody, part only; not given: anti-CD3 scFv arm, constant regions, V domains shown, not shown: another chain or arm of the molecule; a dimerising Fc or GST; small tags and cut ends) VL: DVVMTQTPSSVSAAVGGTVTINCQASQSLYNNKNLAWYQQKPGQPPKLLIYYASALASGVSSRFKGSGSGTQFTLTISGVQSDDAATYYCQGEFNCNSADCNSFGGGTEVVVK VH: QSVEESGGRLVTPGTPLTITCTVSGFSLSSYAMSWVRQAPGKGLEWIGVIDSGGTTYYATWAKSRFTISKTTKVALKITSPTTEDTATYFCARESYAGYDGYGHPIPYGMDPWGPGTLVTVSS	0.0457 µg/mL	0.0196 µg/mL	0.0509 µg/mL	0.0171 µg/mL	
CALRB80 (MP1018C Fab x CD3W245-LH-scFv, medium affinity) (bispecific antibody, part only; not given: CD3 scFv arm and IgG1 constant regions, V domains shown, not shown: another chain or arm of the molecule; a dimerising Fc or GST; small tags and cut ends) VL: DVVMTQTPSSVSAAVGGTVTINCQASQSLYNNKNLAWYQQKPGQPPKLLIYYASALASGVSSRFKGSGSGTQFTLTISGVQSDDAATYYCQGEFNCNSADCNSFGGGTEVVVK VH: QSVEESGGRLVTPGTPLTITCTVSGFSLSSYAMSWVRQAPGKGLEWIGVIDSGGTTYYATWAKSRFTISKTSSTKVALKITSPTTEDTATYFCARESYAGYDGYGHPIPYGMDPWGPGTLVTVSS	0.0401 µg/mL	0.0205 µg/mL	0.0434 µg/mL	0.0212 µg/mL	
